The results in this text go back to patent US20260167721A1 (ABLEXIS, published 2026).

B1: CD3 × CD33-BspAb86 (bispecific antibody)
scFv-Fc: EVQLVESGGGLVKPGGSLRLSCAASGFTFSSYSMNWVRQAPGKCLEWVSSISRSGTYIYYADSVKGRFTISRDNAKNSLYLQMNSLRAEDTAVYYCARERWELLYFDYWGQGTLVTVSSGGGGSGGGGSGGGGSGGGGSQTVVTQEPSLTVSPGGTVTLTCASSTGAVTSGYYPNWFQQKPGQAPRALIYSTSNKHSWTPARFSGSLLGGKAALTLSGVQPEDEAEYYCLLYYGGAYVFGCGTKVTVLGGGGSDKTHTCPPCPAPEFEGGPSVFLFPPKPKDTLMISRTPEVTCVVVDVSHEDPEVKFNWYVDGVEVHNAKTKPREEQYNSTYRVVSVLTVLHQDWLNGKEYKCKVSNKALPASIEKTISKAKGQPREPQVYTLPPCREEMTKNQVSLWCLVKGFYPSDIAVEWESNGQPENNYKTTPPVLDSDGSFFLYSKLTVDKSRWQQGNVFSCSVMHEALHNHYTQKSLSLSPGK
heavy: EVQLVQSGAEVKKPGSSVKVSCKASGYTITDSNIHWVRQAPGQSLEWIGYIYPYNGGTDYNQKFKNRATLTVDNPTNTAYMELSSLRSEDTAFYYCVNGNPWLAYWGQGTLVTVSSASTKGPSVFPLAPSSKSTSGGTAALGCLVKDYFPEPVTVSWNSGALTSGVHTFPAVLQSSGLYSLSSVVTVPSSSLGTQTYICNVNHKPSNTKVDKRVEPKSCDKTHTCPPCPAPEFEGGPSVFLFPPKPKDTLMISRTPEVTCVVVDVSHEDPEVKFNWYVDGVEVHNAKTKPREEQYNSTYRVVSVLTVLHQDWLNGKEYKCKVSNKALPASIEKTISKAKGQPREPQVCTLPPSREEMTKNQVSLSCAVKGFYPSDIAVEWESNGQPENNYKTTPPVLDSDGSFFLVSKLTVDKSRWQQGNVFSCSVMHEALHNRFTQKSLSLSPGK
light: DIQLTQSPSTLSASVGDRVTITCRASESLDNYGIRFLTWFQQKPGKAPKLLMYAASNQGSGVPSRFSGSGSGTEFTLTISSLQPDDFATYYCQQTKEVPWSFGQGTKVEVKRTVAAPSVFIFPPSDEQLKSGTASVVCLLNNFYPREAKVQWKVDNALQSGNSQESVTEQDSKDSTYSLSSTLTLSKADYEKHKVYACEVTHQGLSSPVTKSFNRGEC
notes: KiH heterodimer
B2: CD3 × CD33-BspAb95 (bispecific antibody)
chain 1: NFMLTQPHSVSESPGKTVTISCTRSSGSIASNYVQWYQQRPGSSPTTVIYEDNQRSSGVPDRFSGSIDSSSNSASLTISGLKTEDEADYYCQSYDRSNRVFGCGTKLTVLGGGGSGGGGSGGGGSGGGGSEVQLVESGGGLVKPGGSLRLSCSASGFTFSTYTMNWVRQAPGKCLEWVSSISKSSSYIYYTDSVKGRFTISRDNAKNSLYLQMNSLRAEDTAVYYCARERRTLAFDIWGQGTMVTVSSDKTHTCPPCPAPEFEGGPSVFLFPPKPKDTLMISRTPEVTCVVVDVSHEDPEVKFNWYVDGVEVHNAKTKPREEQYNSTYRVVSVLTVLHQDWLNGKEYKCKVSNKALPASIEKTISKAKGQPREPQVYTLPPCREEMTKNQVSLWCLVKGFYPSDIAVEWESNGQPENNYKTTPPVLDSDGSFFLYSKLTVDKSRWQQGNVFSCSVMHEALHNHYTQKSLSLSPGK
chain 2: B1 heavy
chain 3: B1 light
B3: CD3 × CD33-BspAb90 (bispecific antibody)
scFv-Fc: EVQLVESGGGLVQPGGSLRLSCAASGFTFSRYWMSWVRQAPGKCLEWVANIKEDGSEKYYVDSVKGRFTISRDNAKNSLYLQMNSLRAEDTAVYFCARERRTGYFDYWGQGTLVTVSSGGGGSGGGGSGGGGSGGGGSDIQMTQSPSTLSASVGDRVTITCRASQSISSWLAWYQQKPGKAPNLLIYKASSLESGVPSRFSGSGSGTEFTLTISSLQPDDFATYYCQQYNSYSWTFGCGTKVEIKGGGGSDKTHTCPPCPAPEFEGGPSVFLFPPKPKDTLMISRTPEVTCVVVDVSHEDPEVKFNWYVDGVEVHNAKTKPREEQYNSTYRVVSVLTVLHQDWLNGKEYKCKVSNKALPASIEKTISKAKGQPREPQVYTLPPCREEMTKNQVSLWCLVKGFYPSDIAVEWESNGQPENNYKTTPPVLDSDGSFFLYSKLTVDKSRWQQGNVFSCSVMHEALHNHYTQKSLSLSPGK
heavy: B1 heavy
light: B1 light
notes: KiH heterodimer
B4: CD3 × CD33-BspAb94 (bispecific antibody)
chain 1: NFMLTQPHSVSESPGKTVTISCTRSSGSIASNYVQWYQQRPGSSPTTVIYEDNQRPSGVPDRFSGSIDSSSNSASLTISGLKTEDEADYYCQSYDSSNRVFGCGTKLTVLGGGGSGGGGSGGGGSGGGGSEVQLVESGGGLVKPGGSLRLSCAASGFTFSSYTMNWVRQAPGKCLEWVSSITTSSSYIYYADSVKGRFTISRDNAKNSLYLQMNSLRAEDTAVYYCARVTFDAFDIWGQGTMVTVSSDKTHTCPPCPAPEFEGGPSVFLFPPKPKDTLMISRTPEVTCVVVDVSHEDPEVKFNWYVDGVEVHNAKTKPREEQYNSTYRVVSVLTVLHQDWLNGKEYKCKVSNKALPASIEKTISKAKGQPREPQVYTLPPCREEMTKNQVSLWCLVKGFYPSDIAVEWESNGQPENNYKTTPPVLDSDGSFFLYSKLTVDKSRWQQGNVFSCSVMHEALHNHYTQKSLSLSPGK
chain 2: B1 heavy
chain 3: B1 light
B5: CD3 × CD33-BspAb91 (bispecific antibody)
chain 1: DIQMTQSPSTLSASVGDRVTITCRASQSISSWLAWFQQKTGKAPKLLIYKASSLESGVPSRFSGSGSGTEFTLTISSLQPDDFATYYCQQYISYSWTFGCGTKVEIKGGGGSGGGGSGGGGSGGGGSEVQLVESGGGLVQRGGSLRLSCAASGFTFSNYWMSWVRQAPGKCLEWVANIKEDGSEKYYVDSVKGRFTISRDNAKHSLYLQMNSLRAEDTAVYYCARERRTGYFDYWGQGTLVTVSSDKTHTCPPCPAPEFEGGPSVFLFPPKPKDTLMISRTPEVTCVVVDVSHEDPEVKFNWYVDGVEVHNAKTKPREEQYNSTYRVVSVLTVLHQDWLNGKEYKCKVSNKALPASIEKTISKAKGQPREPQVYTLPPCREEMTKNQVSLWCLVKGFYPSDIAVEWESNGQPENNYKTTPPVLDSDGSFFLYSKLTVDKSRWQQGNVFSCSVMHEALHNHYTQKSLSLSPGK
chain 2: B1 heavy
chain 3: B1 light
B6: CD3 × CD33-BspAb89 (bispecific antibody)
scFv-Fc: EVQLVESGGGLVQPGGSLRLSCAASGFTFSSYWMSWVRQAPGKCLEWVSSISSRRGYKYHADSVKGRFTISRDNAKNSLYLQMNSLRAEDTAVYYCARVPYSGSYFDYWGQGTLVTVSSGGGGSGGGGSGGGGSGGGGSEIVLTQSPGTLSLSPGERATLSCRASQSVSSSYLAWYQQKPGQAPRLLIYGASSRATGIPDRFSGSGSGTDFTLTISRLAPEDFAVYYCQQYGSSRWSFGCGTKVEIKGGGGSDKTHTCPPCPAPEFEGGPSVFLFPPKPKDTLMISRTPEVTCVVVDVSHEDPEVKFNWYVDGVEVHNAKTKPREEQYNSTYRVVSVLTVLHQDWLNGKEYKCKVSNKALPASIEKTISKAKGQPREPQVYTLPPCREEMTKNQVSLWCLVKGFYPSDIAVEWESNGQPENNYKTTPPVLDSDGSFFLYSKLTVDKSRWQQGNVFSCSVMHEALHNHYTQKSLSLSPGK
heavy: B1 heavy
light: B1 light
notes: KiH heterodimer
B7: CD3 × CD33-BspAb93 (bispecific antibody)
chain 1: NFMLTQPHSVSESPGKTVTISCTRSSGSIASKYVQWYQQRPGSSPTTVIYEDNQRPSGVPDRFSGSIDSSSNSASLTISGLKTEDEADYYCQSYYSNNRVFGCGTKLTVLGGGGSGGGGSGGGGSGGGGSEVQLVESGGGLVQPGGSLRLSCAASGFTFSRYSMNWVRQAPGKCLEWVSYISRSSTTIYYADSVKGRFTISRDNAKNSLYLQMNSLRDEDAAVYYCARERWELLYFDYWGQGTLVTVSSDKTHTCPPCPAPEFEGGPSVFLFPPKPKDTLMISRTPEVTCVVVDVSHEDPEVKFNWYVDGVEVHNAKTKPREEQYNSTYRVVSVLTVLHQDWLNGKEYKCKVSNKALPASIEKTISKAKGQPREPQVYTLPPCREEMTKNQVSLWCLVKGFYPSDIAVEWESNGQPENNYKTTPPVLDSDGSFFLYSKLTVDKSRWQQGNVFSCSVMHEALHNHYTQKSLSLSPGK
chain 2: B1 heavy
chain 3: B1 light

In one assay the target is T1, human CD3 (TCR/CD3 complex on the cell surface) (human, UniProt P07766 23-207; P04234 22-171; P09693 23-182).
T1 construct: whole, on cells; Native CD3 on human Pan-T cells or Jurkat wild-type cells; also called CD3 on Pan-T cells; CD3 on Jurkat WT cells
T1 sequence (P07766 23-207, chain 1 of 3): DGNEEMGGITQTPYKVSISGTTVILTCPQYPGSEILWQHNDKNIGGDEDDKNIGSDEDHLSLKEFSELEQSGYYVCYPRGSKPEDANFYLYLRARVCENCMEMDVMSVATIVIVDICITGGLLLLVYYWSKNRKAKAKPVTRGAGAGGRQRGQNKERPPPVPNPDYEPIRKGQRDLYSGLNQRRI
T1 sequence (P04234 22-171, chain 2 of 3): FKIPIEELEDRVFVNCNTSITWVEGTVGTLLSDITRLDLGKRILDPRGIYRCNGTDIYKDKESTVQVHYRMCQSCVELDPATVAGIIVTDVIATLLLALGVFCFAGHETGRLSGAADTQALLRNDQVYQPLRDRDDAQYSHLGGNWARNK
T1 sequence (P09693 23-182, chain 3 of 3): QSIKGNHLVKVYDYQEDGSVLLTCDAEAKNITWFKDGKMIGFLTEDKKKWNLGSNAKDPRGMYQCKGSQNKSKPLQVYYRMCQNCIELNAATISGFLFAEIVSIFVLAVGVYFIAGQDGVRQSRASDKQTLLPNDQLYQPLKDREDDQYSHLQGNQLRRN
The assay is described as follows: flow cytometry, Jurkat WT cells, 1 ug/mL.
In turn, B1 came in with a gMFI of 3180 gMFI.
B2: the gMFI is 33900 gMFI.
Turning to B3, the gMFI came out at 4480 gMFI.
On the same count and under the same terms, then B4, with 1830 gMFI.
On the same count and under the same terms, then B5, with 8110 gMFI; and B6, with 1840 gMFI; and B7, with 16200 gMFI.

The next assay deals with T1, human CD3 (TCR/CD3 complex on the cell …). The assay is described as follows: flow cytometry, Pan-T cells, 1 ug/mL.
With B1, the “% Positive” value worked out at 35.2% and the gMFI stood at 5410 gMFI.
The corresponding values for B2 are 99.7% and 112000 gMFI.
Consider B3, for which the “% Positive” value was determined as 83.8% and the gMFI was found to be 11600 gMFI.
Take B4: the “% Positive” value is 2.6% and the gMFI is 2050 gMFI.
B5: the “% Positive” value was found to be 94.6% and the gMFI was found to be 18500 gMFI.
With B6, the “% Positive” value turned out to be 0.6% and the gMFI came to 1830 gMFI.
Regarding B7, the “% Positive” value stood at 98.2% and the gMFI worked out at 29600 gMFI.

Another assay shares this target. The assay is described as follows: flow cytometry, Jurkat WT cells, 10 ug/mL. A general note: In flow cytometry, cells or beads pass a laser one at a time.
For the molecule B1, the gMFI is 9550 gMFI.
On the same count and under the same terms, in the case of B2 it was 39500 gMFI; in that of B3, 19400 gMFI; in that of B4, 2190 gMFI.
In turn, B5 yielded a gMFI of 31600 gMFI.
Still for that read-out and setting: then B6, with 1750 gMFI; and B7, with 28400 gMFI.

The target is the same in another assay. In words: flow cytometry, Jurkat WT gMFI over Jurkat KO gMFI, 10 ug/mL.
As for B1, the “Jurkat WT/KO (Fold)” value came to 3.9 fold.
On to B2, for which the “Jurkat WT/KO (Fold)” value amounted to 12.5 fold.
Still for that read-out and setting: in the case of B3 it was 7.5 fold; in that of B4, 1.1 fold.
Still for that read-out and setting: in the case of B5 it was 10.4 fold; in that of B6, 0.9 fold.
Still for that read-out and setting: in the case of B7 it was 9.5 fold.

For another assay the target is unchanged. In words: flow cytometry, Pan-T cells, 10 ug/mL.
With B1, the “% Positive” value amounted to 92.4% and the gMFI was 25400 gMFI.
For B2, in that order: 99.8% and 232000 gMFI.
Turning to B3, the “% Positive” value was 98.1% and the gMFI came out at 78400 gMFI.
On to B4, for which the “% Positive” value worked out at 4.4% and the gMFI stood at 2600 gMFI.
For B5, in that order: 99.4% and 127000 gMFI.
For B6, in that order: 1.7% and 1960 gMFI.
The corresponding values for B7 are 99.8% and 135000 gMFI.

A further assay has the same target. In words: flow cytometry, Jurkat WT gMFI over Jurkat KO gMFI, 1 ug/mL.
B1: the “Jurkat WT/KO (Fold)” value stood at 1.4 fold.
For the molecule B2, the “Jurkat WT/KO (Fold)” value was 10.5 fold.
Same read-out and setting: then B3, with 1.9 fold; and B4, with 0.8 fold.
B5: the “Jurkat WT/KO (Fold)” value turned out to be 3.7 fold.
For B6, the “Jurkat WT/KO (Fold)” value is 0.8 fold.
B7: the “Jurkat WT/KO (Fold)” value amounted to 5.6 fold.
